Results on 3 substances are retold here after patent US20260176358A1.

Assay [1] addresses PACAP38 (UniProt P18509). Briefly: competition ELISA, biotinylated PACAP38 to coated VPAC2-Fc. (In general: ELISA stands for enzyme-linked immunosorbent assay.)
Assay [2] has as its target PACAP38 (UniProt P18509). The assay is described as follows: ELISA, biotinylated peptide on streptavidin plate.
Assay [3] deals with VIP (UniProt P01282). The assay is described as follows: ELISA, biotinylated peptide on streptavidin plate.
Assay [4] concerns the target PACAP27 (UniProt P18509). The assay is described as follows: ELISA, biotinylated peptide on streptavidin plate.
Assay [5] addresses PACAP38 (UniProt P18509). The assay is described as follows: competition ELISA, biotinylated PACAP38 to coated VPAC1-Fc.
The target of assay [6] is PACAP38 (UniProt P18509). The assay is described as follows: competition ELISA, biotinylated PACAP38 to coated PAC1-Fc.
In assay [7] the target is CGRP. The assay is described as follows: cell-based or functional assay.

Sequence of PACAP38 (P18509 132-169 limits assumed): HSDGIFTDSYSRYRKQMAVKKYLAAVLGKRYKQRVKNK
Sequence of VIP (P01282 125-152 limits assumed): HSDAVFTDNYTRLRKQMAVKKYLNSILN
Sequence of PACAP27 (P18509 132-158 limits assumed): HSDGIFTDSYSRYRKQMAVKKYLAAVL

Take ALD-1910 (antibody): the results for the IC50 in assay [1], in assay [5] and in assay [6] were 1.58 nM, 0.65 nM and 4.89 nM, respectively. Further, the EC50 (in general, the concentration giving half of the maximal effect) stood at 0.07 nM in assay [2], 1.02 nM in assay [3] and 0.15 nM in assay [4].
In turn, Fremanezumab (antibody) yielded an IC50, inhibition of cAMP production in SK-N-MC cells in assay [7] of 40 nM.
For LY-3451838 (antibody), the values for the IC50 in assay [1], in assay [5] and in assay [6] were 1.42 nM, 1.34 nM and 6.46 nM, respectively. The EC50 stood at 0.06 nM in assay [2], 9.58 nM in assay [3] and 0.11 nM in assay [4].
